Experimental data published in paper PMC4979867, “Reconstitution of the membrane protein OmpF into biomimetic block copolymer–phospholipid hybrid membranes” (Beilstein Journal of Nanotechnology, 2016).

Molecular target: the molecule itself
Test: SDS-PAGE of the unboiled sample; purified OmpF in 1% octyl-POE, sample not boiled before SDS-PAGE

B1: outer membrane protein OmpF from Escherichia coli (natural protein, UniProt P02931 23-362, looked up)
chain: AEIYNKDGNKVDLYGKAVGLHYFSKGNGENSYGGNGDMTYARLGFKGETQINSDLTGYGQWEYNFQGNNSEGADAQTGNKTRLAFAGLKYADVGSFDYGRNYGVVYDALGYTDMLPEFGGDTAYSDDFFVGRVGGVATYRNSNFFGLVDGLNFAVQYLGKNERDTARRSNGDGVGGSISYEYEGFGIVGAYGAADRTNLQEAQPLGNGKKAEQWATGLKYDANNIYLAANYGETRNATPITNKFTNTSGFANKTQDVLLVAQYQFDFGLRPSIAYTKSKAKDVEGIGDVDLVNYFEVGATYYFNKNMSTYVDYIINQIDSDNKLGVGSDDTVAVGIVYQF
notes: Outer membrane porin OmpF, Escherichia coli, native protein from strain B^E BL21(DE3)omp6 (lacks LamB and OmpC); no residues or identifiers printed; The protein here comes from an E. coli B strain, whose OmpF may differ from it at a few positions; also called native OmpF protein
stoichiometry N: 3
